Measured values from publication PMC11655445.

What was measured:
Conditions in all cases: glycan lost; control: WT PTTG1IP-GFP
[1] = single-vesicle analysis, GFP+ EVs in conditioned media
[2] = anti-GFP Western blot of cell lysates
[3] = anti-GFP Western blot of isolated EVs
[4] = median fluorescence intensity of GFP+ EVs

B1: PTTG1IP (pituitary tumor-transforming gene 1 protein-interacting protein): 2NQ (protein)
parent chain: MAPGVARGPTPYWRLRLGGAALLLLLIPVAAAQEPPGAACSQNTNKTCEECLKNVSCLWCNTNKACLDYPVTSVLPPASLCKLSSARWGVCWVNFEALIITMSVVGGTLLLGIAICCCCCCRRKRSRKPDRSEEKAMREREERRIRQEERRAEMKTRHDEIRKKYGLFKEENPYARFENN
Q: For B1, which “localisation_or_trafficking, other: % GFP+ vesicles” value [1] is on record?
A: decreases, 27.2 vs 84

Q: And the expression_or_secretion [2]?
A: no change

Q: What about the localisation_or_trafficking [3] of the same protein?
A: decreases

Q: What about the localisation or trafficking, percent of wt [4] of the same protein?
A: 48%

B2: PTTG1IP (pituitary tumor-transforming gene 1 protein-interacting protein): N45Q (protein)
parent chain: B1 parent chain
Q: With B2 as the protein, how does the “localisation_or_trafficking, other: % GFP+ vesicles” value [1] read?
A: decreases, 43.6 vs 84

Q: What about the expression_or_secretion [2] of the same protein?
A: no change

B3: PTTG1IP (pituitary tumor-transforming gene 1 protein-interacting protein): N54Q (protein)
parent chain: B1 parent chain
Q: Which “localisation_or_trafficking, other: % GFP+ vesicles” value [1] does the source give for B3 here?
A: decreases, 45.7 vs 84

Q: And the expression_or_secretion [2]?
A: no change
